We go through seven molecules from patent US12312412 (dated 2025).

The assay deals with MAGEB2 peptide … / HLA-A*02:01 / b2m (human). The experiment in a line: FACS.

What is called Kd is a measure of binding affinity in units of concentration. Read a low Kd as higher affinity.

Substitutions are numbered along the chain they refer to. In names and notes the source's numbering stands.

B1: MA 09-H7 CC (T3S) (antibody, V domains shown)
VH: QITLKESGPALVKPTQTLTLTCTFSGFSFTTHKMGVDWIRQPPGKCLEWLALIYWNDDKRYSPSLQSRLTITKDTSKNQVVLTMTNMDPVDTATYYCAYRRYNWNYENWFDPWGQGTLVTVSS
VL: DIQMTQSPSSLSASVGDRVTITCQASQDISNYLNWYQQKPGKAPKLLIYAASSLQSGVPSRFSGSGSGTDFTLTISSLQPEDFATYYCQQSYFPVVEFGCGTKVEIK
B1 registered a Kd of 0.8 nM.

B2: MA 03-H12_AS CC (K5A) (antibody, V domains shown)
VH: EVQLLESGGGLVQPGGSLRLSCAASGFTFSSHAMSWVRQAPGKCLEWVSAISGSGGGTYNAASVKGRFTISRDNSKNTLYLQMNSLRAEDTAAYYCVTGKGVHLGFDYWGQGTLVTVSS
VL: SYVLTQPPSVSVAPGQTARITCGGNNIGSKSVHWYQQKPGQAPVMVVYDDNDRPSGIPERFSGSNFGNTATLTISRVEAGDEADYYCQVWDYVTPRWVFGCGTKLTVL
Regarding B2, the Kd amounted to 1.1 nM.

B3: MA 03-C7_AS CC (G2H) (antibody, V domains shown)
VH: B2 VH with N60Y, A93V, V97A
VL: B2 VL with F66S, V93E, T94R, R96A, W97M
B3: binding was put at a Kd of 1.5 nM.

B4: MA 03-G11_AS CC (O4R) (antibody, V domains shown)
VH: B2 VH with Q13K, N60Y, A93V, V97A, G105N
VL: B2 VL with M45L, T73I, V93L, T94L, R96G, W97Q
B4 displayed a Kd of 1.3 nM.

B5: MA 03-D12_AS CC (L6A) (antibody, V domains shown)
VH: B2 VH with N60Y, G66A, A93V, V97A
VL: B2 VL with F66S, V93L, T94R, P95Q, R96Q, W97Q
As for B5, the Kd is 0.7 nM.

B6: MA 10-G2 CC (T1S) (antibody, V domains shown)
VH: EVQLVESGGGLVQPGGSLRLSCAASGFTFSNAWMSWVRQAPGKCLEWVGRILSMHYGGTTDYAAPVKGRFTISRDDSKNTLYLQMNSLKTEDTAVYYCTTPSYSGSYYNYFSVMDVWGQGTTVTVSS
VL: DIQMTQSPSSLSASVGDRVTITCRTSQSISSYLNWFQQKPGKAPKLLIFAASSLQSGVPSRFSGSGSGTDFTLTISSLQPEDFATYYCQQTYSMPFTFGCGTKVDIK
With B6, the Kd turned out to be 1 nM.

B7: MA 10-H3 CC (M9L) (antibody, V domains shown)
VH: B6 VH with L52R, M54R, H55P
VL: B6 VL with F36Y, K42R, S56G, M94S, V104L, D105E
For B7, binding was characterised by a dissociation constant (Kd) of 0.7 nM.
